Laboratory results taken from patent publication US20240026407A1, “MODIFICATION OF SAPONINS” (GLAXOSMITHKLINE BIOLOGICALS SA, priority 2020, published 2024).

Columns and labels:
Assay type in all cases: biochemical, Quillaja saponaria
[1] = Experiment 6-1: screening of rhamnosidases for derhamnosylation of saponins in treated bark extract (2%), desglucosyl-QS-17 2134 to QS-21 1988 (PAR %); details: TBE 2%, pH 7.5, 30 degC, 18 h; TIC peak area ratio percent, LCMS/MS; negative controls 2.719, 2.158
[2] = Experiment 6-1: screening of rhamnosidases for derhamnosylation of saponins in treated bark extract (2%), QS-17 2310 to QS-18 2164 (PAR %); details: TBE 2%, pH 7.5, 30 degC, 18 h; TIC peak area ratio percent, LCMS/MS; negative controls 3.061, 2.429
[3] = Experiment 6-1: screening of rhamnosidases for derhamnosylation of saponins in treated bark extract (2%), QS-17 2296 to QS-18 2150 (PAR %); details: TBE 2%, pH 7.5, 30 degC, 18 h; TIC peak area ratio percent of rhamnosylated starting saponin to derhamnosylated product, LCMS/MS; negative controls 4.876, 5.225
[4] = Experiment 6-1: specificity of rhamnosidases towards other rhamnose residues (C3 saccharide rhamnose, C28 saccharide rhamnose); details: TBE 2%, pH 7.5, 30 degC, 18 h; LCMS/MS; negative controls 0.18, 0.17

Molecule | Peak75 (PAR %) [1] [%] | Peak57 (PAR %) [2] [%] | QS-17 (PAR %) [3] [%] | ratio PP/QS-21 [4]
1068 (protein, listed as Pedobacter heparinus) MINQIFKFSFFALNLLAWYSFTAKSQDLKVFDKATSWITCDKAQDQSNSWIAFRKVVQLDEKPVKALLDISVDSKYWLYINEKLVVFEGGLKRGPNPDDTYYDEADLTEYLKAGTNTIAVLLWYFGKNGFSHHSSGRAGMFFQLDMDKQGKICSDRSWKCSVVPAYLNVYSGDQPNYRLAESNVIYDARLALGDWTSASYNDKTWRNPFVVGPAGCMPWNKLVKRPIPQWKDYGIVNFNLNFPFNATGDTIKVKLPYNAQFTPYLKVEATAGKTIEMFTDNYSGGSENNVRAEYITKTGIQEYESFGWMNGHVMMFVIPKGAKVLSLGYRETGYHTTFAGSFNCNDAFYNKLWEKSSRTLYVNMRDSYMDCPDRERAQWWGDEVTEMTQSFYALDPDANLLAKKGIDELTGWQRSDGVLFSPIPAGNFDLELPVQMLTSVGYYGFWTYYYYTGDLETIRAAYPSIRKYLSLWEMDKNGLVISRTGGWNWGDWGKNVDIDLMSNAWYYLACKGYLEMSKTLNHAEEIKWAENQMSVMKKSFDTRFWTGKAYRSPDYKGQTDDRSNALAVLAGLTAPAKYPLLKDVFLTEEHSSPYMEKYVLEALFKMGYADIALERLKKRYTAMVDSELTTLWEGWKIGVNGYGGGSYNHAWSGGGLILLSRFVAGIEPASPGYETVKIAPQMGSLINCSATVSSVAGLIAVKNTFTNEKEFNQLIESPSPLKIYFPFEVYRIKKIRVNNKKLSEALMLKFKNEGKLELSKGKYKLTVNIN | 2.370 | 3.156 | 5.521 | 0.17
1044 (protein, listed as Streptomyces sp.) MHETHPRRGGMTRRSVLAAGLTTGVLAALGPAAEAAASPAASPAASPAASASAGATPTASWFAAPARAVRPKFRWWWPDGLVDPAEIAREIDQMADAGFGGAEIAAVHHSISDTSVLDTAHHGWGSAPWRDGVKAALRQAARRGLTVDLTLGPSWPVAVPGVTPDDEAAVKELAYGKATLTGGAAFDGPVPAPVYAPASGVTVQKLFAVQAARVDTAYSSGKATGLDVDSVTDLTNRVADGNLRWTPPDSGTWVVLSYWQRGSGQQPEAGPHSSPAAYVIDHFSAAGTAAVTRYWDTAILDSTLRKLLKAAGGAFFEDSVELESKGLQWTPGLPDAFRAHTGRDLLPYLPAVILDNSNQVFAFEARLTQEIRHDFWETVSNLFNEHHLGALKKWAHGHGMKLRSQPYGLQTDAIASAAVLDIPEGESLGFKNLDDYRCLAGGRDMAGSRVLSCESGAYAGGAYNTTWDKFLRTMGGAYAAGVNQTVIHGFSYATAPGVSWPGFAAFSPYSGAPGYGESWGPRQPTWHHVADVAGYIGRVQQVLQSGTVRADVAVFRQTGYTATGIGASWLTSTGVPLGWTHQFLSGPLLDLPNAKVSGKRLAPDGPAYKALFLEGDFFYGSTPTLSVDDAHKLLKFARAGLPTVLLGAFGQALTPGLPDDGETDELRALTAELLALPNVRNVTDKTLVGAAFAELGVTSDVSYSVSSTLLNAHRVTDDADFYYLCNGKHAETVKPPVAAIDHDVTLRSTVRGGAGTVPYLLDPWSGRVTRLARYTRDGDAFTFRVTLQPGETLVVALGRPGLFGNRDGNRPHAVATDADEALFTGGRLAVRASAAGTFTTTLSTGRKVTTKVAEVPAAVTPDRWTLSVDDWRPGADATSTEVVRHSLTLDALLPWSQIPELADVGGIGTYRTTVTLPKSWSSATGALLRLGSVTDTCRVTVNGVRLDPVDRVNPVVDLGGRLRKGANTLEIEVATPLFNRLRVSNPAVFGTAARQAYGLVGPVQLVPYVQRTVA | 2.274 | 3.156 | 5.370 | 0.16
1025 (protein, listed as Bacteroides xylanisolvens) MKKDYMKYQQNSKREEKSKFITNQLTNMAHISIRSYLYLLGTTLFSCAPQELKTPFELKCENIPVPVGVDTQTPRLSWKLPLLEEDSINRVEIWLSTDSTQLSGRQSGYWNKSIIGAPIRVSYDGQPLDSYTTYYWKIGYQTSSKQKTTFSPISSFTTGCLSPDNWKGKWITDKHDITYRPAPYYRKSFQLDKTIEQALLTIASAGLHELSVNGQRAGNHFLDPMYTHFDKRILSVTHDVTSLLSLGENVIGVQLGNGWYNHQSTAVWFFDKASWRNRPKFTAQLHLRYTDGTTEYLGTDSTWQTTDSPVIFNSIYTAEHYDAQKELAGWDSPGFNATGWYHAQETESPTETIKSQVMHPIRETARYTATQCKKINDSCYVYHFPKNIAGVTELKVKGKKGTKLRLKHGELLDKNGMVNMANIDYHYRPTDDSDPFQTDIVILSGKQDRFMPKFNYKGFQFVEVSSSAPIQLSDENLIAVEMHSDIPAIGYWSSSSDLLNKIWKATNSSYLANLFGYPTDCPQREKNGWTGDAHITIETGLYNFDGISIYEKWMNDFCDEQKDNGILPCIIPTSVWGYDWANGVDWTSAVAIIPWEIYRFYGDTTLLRRMYGPIKKYVSYIESISTNHLTDWGLGDWVPVRSKSNITLTSSIYYYTDVCILAKAARLFGYAEDASYYNTLAQKIKEAINTSFLNKETGIYAEGTQTELAMPLYWGIVPEEDKKKVAARLHELVEKDDYHLDVGLLGSKALLSAMSDNGYAETAYKVASQDTYPSWGVLDQTRCYNST | 2.330 | 2.933 | 5.495 | 0.18
1009 (protein, Dyadobacter fermentans) MFKILRPIGFLAALLLLTGEMVMGQKSTQIISPSVFQNPPSTYGIRCWWWWLNGNVDKEVITRDLEEMKAKGFSGACLFDAGGAEQRGNAQVPAGPMFGSPQWRELYIHAMREADRLGLVMSMSIQSGWNLGGPDITAEESAKQVAFSQVQVKGNTRISQELPMPKTHHDFYRDIVVLAIPTKVFANRPPIRDFENKAATREVGASVPETRPLLTDIPGTPGEEDASKKQVLNITRHFKNGKLEWRAPAGEWTVLRFGYTATDAEVSTSSGDWQGLVIDYMSEKAFNRYWDTNVEPLLKAIGPLAGKTLRYLQTDSFEAGGMNWTDGFEKEFIKHRGYDPIPYLPVLAGKIIDSREVSNRFLSDLRKTLADLIAEKHYGVFSKRSAAYGIGIQPESAGPHAGPFDGLKNYGYSEIMMSEFWSPSPHRPRPIDRFFVKQAGSAAKIHNKKLVGAESFTTIGPHWNDVMWSDMKPSVDHEFSAGLNLVYLHTFTASPKAMGIPGQEYFAGTHFNPNVTWWNQSTAFIQYLTRCQYLLQSGTSVADVLYYYGDHSPNLGRLKEDDPAKALPGFDYDLINEDRLMELQAKDGKIFLPHGVSYRVLVLPDHKTLSLKALQKVEALVKEGASVIGSKTVTTASLVKYPASEQTVRQIADGLWGTGNEATGSRNVGKGTIAWGITAADFLRSKGVHFDMEITARETGSRYDYIHREDTGADFYFISSQNRAASKMTAAFRMTGKQPELWNPVTGETRPATSFYQKDGKTYIPLEFDPYGSVFVVFRDDIAKDQNGSAASNFVHLETATTLHGSWDVAFDPAWGGPAAVVFNELVSWPDRNEEGIKYYSGKAVYSKKFDASQDVAESKQVFLDLGEVKDIGIAKVTLNGKDLGILWAPPLRVPVGGVLKEKDNVLQIEVVNTWRNRLIGDRTKPVEKRFTKTNVKVLETWQLTPSGLLGPVRLLTGSEQ | 2.379 | 3.762 | 5.408 | 0.16
1072 (protein, listed as Kribbella flavida) MAEPVAPDGWTSGGPLAVAKLTAEYAEEPHGTDEVRPRLAWIATAPGYGATQSAYQVLVASQPELLSPEQADVWDSGQVGSDAVQVAYDGPALAARTRYHWAVRLWDGQGRAGRWSRPSWFETALLDEGFGAARWIGASTEAAPLLRRPFELTGPVRRARLYASGLAYAVLRVNGQQVGDAVLDPGFTNYDRTVLYVTHDVTELLQAGENVLGAELGRGFFGMTTPNVWRWHQAPWTGDPRLLARLVIDHEDGTTTELVSDGSWRVTSGPTVSDSLYAGERYDARLAQPGWDAPGFDDAAWSPAVELTAPQGTLRAQAHEPIRVVEEVAPVAISSPRAGVQVIDFGRTTAGWAKLRVEAPAGSRFTLVYGETLTADGQVEATNRHVDGDRFQQDEYVAAGHEIEQWEPRFSYKGFRYLQVTGDAEAEVVLKVVHSDVRAASRFDSDVEVYSWLEQAMRRTVLNNLHGIPTDTPIFEKNGWTGDAQVGAPTMASLVDLARFFTKWLDDLRDSQLPDGRLPVIVPSAGWGYAELAPATEWSTVYPFLLREMHRWYGDTRVLADHWDAVLRYLDWELERVEDGLSISVLGDWLPPGYPDGPPPEDSRLTATAYLHRAVTAVVEIGELIGETSELERLRKAAAELADGLNREFLDREAGLYRTAADPDYRQTSNAVPLAFGLVPEDQVPRVVANLVADVQARDFHLNTGCLGVGVLLPVLTQYGHADVAAKLAQQRTYPSWGYWLEEGADTLWEMWEADTRSRNHYFHGTVVQWLLESVAGLRNVGNGWQRIVVRPDARTGSTSAALRTDTVRGRVAASWRLVGRVLQLEVQVPVGCVAEVHVPSEAAADVTAVPSPYAGEPTRSDGYTVYTVPSGQWHFTSRTA | 2.462 | 3.245 | 5.457 | 0.17
1021 (protein, listed as Paenibacillus sp.) MLQPYAPAIKNYYSAIGIDTPKPIFVWKLSSPLRNQKQTHYRITVAENAESLEEENNLLWDSGKVASDEQLGVMYKGSPLESTSRYCWRVAIWDSSGQSLWSEVQYFITGYLNSEHWSAKWIGDGSDAPFYARYEFDLNKKVKQAFALVSGLGQFKFYMNGRQVGDHEMDPGWTNYHKSVQYVGFDITDHLQSGKNAVGLHVGNGFFAGASGGRHFYTMDKGYEPYGDQLVAIGEWHIEFEDGSRIILRTGEEGWKVHESATTLANVYGSENFDARLYPDGYHVPGFDDSGWKPAQLLKPPAGNLVQQNQPPVKVKQVYDTLSVAEPLPGVYVFDLGQNMAGMFEIYASGPAGSKVIIKPGELMREDGTIATPWDIVTYSEFILAGTGEVEVWKPDFSYYGARWVQIEGCTRDEADTGRPMIHDVKGHFITSASQDTGTLSTDDVRIDKLADIITKAIESNLQSVHTDCPTIEKLGWLEASALMGPSIVYVKQAEELFLKIVRDMMEAQTEEGLIPDIAPEYSLFPDGFRDSIAWGIALLMVPDLLLERYNNFTAIEVAYPAMKRYMDYLKSKEIHDGLIGHGLGDWGIQPQTGGDYIENVETAFYYEGYRLMAKFAGILGFTDELEDYSAEAERIKLNYNKQLLHSLPENSPRYAYCKLGGQFDPANQVVQAIPLAFNLVPEEQLHNVEHALLQAVASRQFHSGEIGLRYLFLALSRLNRNDIVLDMMMQPEHPSYIRFVERGETSLPEFWTDEARSRNHDMMGHILEWLYKELLGISSASGAYKEILIAPFRSGRVKRVKGVHHSIRGEIGVEFSHSAEEIILNVQIPANTTATLQIPLLHGESQLYERGTRVLYEPFNQGAQIYARLKIGSGSYSYVNRV | 2.296 | 3.148 | 5.476 | 0.16
